The target of the assay is Wnt3a. As to the kind of experiment: cell-based or functional assay.

From patent US20110231942A1 come the findings set out here.

Take “Human Tiki2 (from UniProt A6NFA1 20-486) (enzyme)”: the decrease in Wnt3a acylation (metabolic labeling with az-15 and 35S-Met/Cys, click chemistry with ALK-Rho on immunoprecipitated Wnt3a) is 31%.
